Laboratory results published in US20040086863A1 (published 2004).

Key:
[1] = target: T1, HA-tagged PH domain of mSos1 (residues 448-577) (mouse, UniProt Q62245 448-577); experiment: GST pull-down from yeast lysates, anti-HA western blot
T1 construct: range 448-577; Expressed in L40 yeast; The species is read from the printed prefix in 'mSos1'; also called SOS1 PH domain; not shown: HA tag
T1 sequence (looked up): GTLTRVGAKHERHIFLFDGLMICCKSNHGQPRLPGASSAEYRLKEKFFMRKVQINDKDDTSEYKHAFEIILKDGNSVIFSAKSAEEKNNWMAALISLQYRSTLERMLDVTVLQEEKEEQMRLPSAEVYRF

[2] = target: T2, HA-tagged PH domain of mouse Ect-2 (residues 495-621) (mouse, UniProt Q07139 670-796); experiment: as above
T2 construct: range 670-796; Expressed in L40 yeast; also called ECT-2 PH domain; not shown: HA tag
T2 sequence (looked up): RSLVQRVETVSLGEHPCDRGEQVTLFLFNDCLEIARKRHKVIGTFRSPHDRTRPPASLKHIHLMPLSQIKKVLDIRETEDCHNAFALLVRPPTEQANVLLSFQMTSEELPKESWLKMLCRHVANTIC

[3] = target: T3, HA-tagged PH domain of human RasGAP (residues 464-603) (human, UniProt P20936 464-603); experiment: as above
T3 construct: range 464-603; Expressed in L40 yeast; also called Ras-GAP (GAP) PH domain; not shown: HA tag
T3 sequence (looked up): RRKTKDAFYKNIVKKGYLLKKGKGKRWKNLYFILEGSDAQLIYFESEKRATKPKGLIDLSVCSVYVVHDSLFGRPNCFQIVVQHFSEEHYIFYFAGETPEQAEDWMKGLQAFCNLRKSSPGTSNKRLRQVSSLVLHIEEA

[4] = target: T4, HA-tagged IRS-1 PH domain mutant PH^W106A (rat, UniProt P35570 3-133); experiment: GST pull-down from COS-1 lysates (500 µg), anti-HA western blot
T4 construct: range 3-133; Expressed transiently in COS-1 cells; The residue limits are not restated for this mutant; not shown: HA tag
T4 sequence (looked up): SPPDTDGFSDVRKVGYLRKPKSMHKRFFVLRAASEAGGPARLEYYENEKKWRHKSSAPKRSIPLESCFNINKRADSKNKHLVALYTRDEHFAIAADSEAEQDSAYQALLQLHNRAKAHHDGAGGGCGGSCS

Measured: binding result

B1: GST-PHIP fusion protein containing PHIP residues 8-209 (PBR) isolated from the yeast clone VP1.32 (other)
chain: VGELTENGLTLEEWLPSAWITDTLPRRCPFVPQMGDEVYYFRQGHEAYVEMARKNKIYSINPKKQPWHKMELREQELMKIVGIKYEVGLPTLCCLKLAFLDPDTGKLTGGSFTMKYHDMPDVIDFLVLRQQFDDAKYRRWNIGDRFRSVIDDAWWFGTIESQEPLQPEYPDSLFQCYNVCWDNGDTEKMSPWDMELIPNNAV
notes: Bacterially expressed and immobilized for pull-downs; also called GST-PHIP (PBR); not shown: glutathione S-transferase encoded by the pGEX-3X vector
no binding: [1] | [2] | [3] | [4]
